Experimental data taken from patent publication US7303752B2, “Hookworm vaccine” (The George Washington University, priority 2001, dated 2007).
“And” between values parts separate entries of the source, which are not always exact repeats. Identical values can stand only once.

B1: Ac-MTP-1: A. caninum L3 astacin zinc metalloprotease, SEQ ID NO: 16 (also listed as SEQ ID NO: 40); E. coli fusion protein (protein, listed as Ancylostoma caninum)
chain: MRVLLLLLLLSICASAGFLDTKFGQKIKKTLDKIKAVLNGTALIAIREKFIRLREKIKAKLTLSPARKAILDEVMKHIKMIKKDKIQEKGDSIDEINEKSAIGQLLYQGDIVLTEKQAQQITEDIENDKGDREKRQAFRDRNYPRTLWSKGVYFHFHRNATPEVRSVFVKGAKLWMKDTCIDFFESNSAPDRIRVFKENGCWSYVGRLGGEQDLSLGEGCQSVGTAAHEIGHAIGFYHTHARHDRDNFITFNAQNVKPDWLDQFTLQTPATNENYGITYDYGSIMHYGANSASQNGRPTMVPHDPKYVETLGINKHYDCTKNCDPATSAQCKMGGFPHPRDCTRCICPSGYGGKLCDQKPAGCGSIYQATNQYQTLHDEIGDKRAGQRPREDMDFCYYWITAPKGSKIEIKIAGLSQGAAVEGCQYWGVEIKTHADQRLTGYRFCAPEDVGVRLVSNFNIVPIITYNIFYATYVDIQYRIVGDNVGGPMPQPQPNSNCVDNEQCATLVRTKNFCQSRFFTSSVKRGLCPKSSGFCR
B2: Ac-TTR-1: A. caninum transthyretin antigen, SEQ ID NO: 30; E. coli derived, given with SBAS2 (protein, listed as Ancylostoma caninum)
chain: MIQLFLLALVPMCISVREQSIAVKGRLLCGDQPAANVRVKLWEEDTGPDPDDLLDAGYTNSNGEFQLQGGTIETTPIDPVLKIYHDCNDVTGFLSVPKPGSRKVRFSLPDKYISDGMVPKKVMDIGVINLEVEFEKEGREFIVD
B3: Ac-CYS: A. caninum cystatin antigen, SEQ ID NO: 100; Pichia pastoris expressed (protein, listed as Ancylostoma caninum)
chain: MPYLAFIVALLACTVMSGHGQMTGGLTKQDPNDPEHMARAWKAAKGINEDASNAGPYHMIPIKIVKAESQVVAGVRYIFEVLFGESTCKKGHMAATELSASNCELKEGGNRALYKVELWEKPWENFEQFNVEKIRNVAAGEQI
B4: Ac-MTP-2: A. caninum astacin protease antigen, SEQ ID NO: 42; Pichia pastoris expressed (protein, listed as Ancylostoma caninum)
chain: MKYFVLCFCAFFVVNADEEDDLPRNPLWDAYKDDNGKYVIPYVINGSYGEEKKVLFEMMDEIDKNTCVRFIPRSTEQDYIEIVNRLGEGTGAVVGKPGGKSIVLLESSKILNDPTPAPVMQTLMKIIGLPPEHIRPERKDHIKIHWENIEKGYEAFFALSSVKPDPYGIPYDYYSIMHYKKDAFAKPGTITMETLDKRYQDIIGNQEKPSKLDYKKICTKYKCDICMGEKMKY

How the values were obtained:
Assay type in all cases: in vivo, dog
A. caninum [1] = experiment: Canine vaccine trial with Ac-MTP-1, subcutaneous challenge with 500 A. caninum L3
Excerpt: To test whether Ac-MTP-1 could be an effective vaccine, two groups of five (5) purpose-bred male beagles 8+1 wk of age were vaccinated either with the recombinant (expressed and isolated from Escherichia coli) fusion protein formulated with AS02A adjuvant, or adjuvant alone. The composition of AS02A, which has been successfully used in several malaria vaccine clinical studies, is described elsewhere (Lalvani et al, 1999; Bojang et al, 2001; Kester et al, 2001). Details of the animal husbandry and housing conditions were reported previously (Hotez et al, 2002a). The recombinant fusion protein containing a polyhistidine tag was purified from washed E. coli inclusion bodies that were solubilized in 6 M guanidine-HCl in 10 mM Tris HCl, pH 8.0. The solubilized inclusion bodies were processed in 5-10 ml batches by gel filtration chromatography (Sephacryl S-300, 26/60 gel filtration column [Amersham Pharmacia] pre-equilibrated in a buffer containing 0.1 NaH2PO4, 10 mM Tris-HCl and 6 M guanidine) at room temperature (flow rate of 2 ml/minute). Selected fractions containing Ac-MTP-1 (as determined by analysis on sodium dodecyl sulfate-polyacrylamide gel electrophoresis [SDS-PAGE]) were pooled, refolded according to the method of Singh et al (2001), and then loaded onto a 5 ml Hi-Trap IMAC column (Amersham Pharmacia) charged with ZnCl2 and equilibrated in 50 mM sodium phosphate pH 7.2, 1 M urea, and 0.5 M NaCl. The column was subsequently washed with 15 column volumes of equilibration buffer, and the bound protein was eluted with 50 mM sodium phosphate pH7.2, 1 M urea, 0.5 M NaCl, and 50 mM ethylenediamine tetraacetic acid (EDTA). Eluted samples containing protein were pooled and dialyzed against 10 mM Tris-HCl pH 8.0, 5% glycerol, 1 mM dithiothreitol, and 2 mM EDTA.
The recombinant Ac-MTP-1 fusion protein was mixed with SBAS2 adjuvant and administered to each of five dogs in four intramuscular injections on days 1, 4, 43, and 50. […] Antigen-specific canine IgG2 and IgE antibodies were measured by indirect enzyme-linked immunosorbent assay (ELISA) as described previously (Hotez et al, 2002a). […] Quantitative hookworm egg counts (McMaster technique) on each dog were obtained 3 days per wk beginning on day 12 post-infection (PI). Five wk post-infection, the dogs were killed by intravenous barbituate injection, and the adult hookworms were recovered and counted from the small and large intestines at necropsy (Hotez et al., 2002c). The statistical significance of differences between adult hookworm burdens was determined using the Anova test, as were differences in hematological parameters and in quantitative hookworm egg counts. Comparisons of hookworm burden and egg counts with antibody titers were measured using Spearman rank order (nonparametric) correlations. […]

A. caninum [2] = experiment: Canine vaccine trial with Ac-TTR and SBAS2, L3 challenge: worm burden, blood loss, worm size
Method: E. coli derived antigens Ac-MTP-1 and Ac-TTR were tested in vaccine trials in dogs. Antigens were administered with adjuvant SBAS2. […] Subsequently the dogs were challenged by subcutaneous injection of L3 hookworm larvae.
Animals were also tested to ascertain whether vaccination with hookworm antigens protected against blood loss. […] Using the Mann-Whitney test, the differences in both hemoglobin (38B) concentration (P=0.036) and hematocrit (38A) concentration (P=0.009) between the TTR and adjuvant control groups were statistically significant.
Further, the differences in hemoglobin concentration translated to a statistically significant reduction in worm size. Data was collected using an imaging system based on scans of the worms recovered from a host. Worms were photographed with a CoolSnapPro digital camera (Media Cybernetics), and the images measured in ImagePro Software using a macro to determine worm length (in mm) compared between treatments. As shown in FIG. 39 there was a statistically significant reduction in worm size (between 1 and 2 mm) among the TTR vaccinated group relative to the adjuvant control group.

[3] = system: antigen-specific IgG1 and IgG2; experiment: Antibody titers in HV-12 (Ac-CYS, Ac-MTP-2, Ac-GST in AS03, irradiated L3); settings: for Antibody titers, IgG1, GEOMEAN / Antibody titers, IgG2, GEOMEAN: geometric mean of group; for Antibody titers, IgG1 / Antibody titers, IgG2: individual dogs, after four immunizations, L3 Extract = group E dogs vaccinated with irradiated L3
Method: (§1) Brief Outline of Study Sections: Purpose bred beagles were randomized into five groups. […] groups were given one of three candidate vaccines: Ac-Cystatin, Ac-MTP-2 and Ac-GST in combination with the adjuvant ASO3. One group will serve as the negative control receiving the adjuvant only. Another group will be a positive control immunized with irradiated infective larvae. Each animal's specific antibody response was evaluated by direct ELISA using serum taken prior to the infective challenge. Cellular immune responses were assessed by peripheral (blood cells) lymphoproliferative responses to specific recombinant antigens and/or crude extract of infective larvae (L3) or adult worms. Local cellular immune responses were performed post mortem with lymphocytes extracted from mesenteric lymph nodes and, if considered, spleen. After immunization, animals were challenged with a known number dose of infective third stage larvae of A. caninum. Quantitative ova counts, used to evaluate worm burden, were determined from fecal samples collected three times per week. […] Tissues from different organs were examined macro and microscopically to assess any consequence of the vaccine, parasite or immune related lesions.
(§2) Administration of Test and Control Articles: The vaccines and adjuvant were administered intramuscularly (IM) […] beginning when the dogs are 62+/−4 days old. The vaccines are boosted at 21+/−3-day intervals. Four doses of the vaccines were given 21 days apart (days 0, 21, 42, and […]). The dogs were challenged percutaneously with 500 A. caninum L3, 14 days after the final vaccination.
Serum Samples for Quantitative ELISA Antibody Titers: Animals treated with vaccines containing foreign proteins develop an immune response resulting in an increased level of high affinity serum antibodies that are directed against the antigen. […] White blood cells were collected for immunological measurements nine (9) days after the last boost and at the time of euthanasia to address the cellular immune response status and cytokine production upon in vitro restimulation of lymphocytes.

A. caninum [4] = experiment: Canine vaccine trial HV-12, percutaneous challenge with 500 A. caninum L3; settings: for Adult Hookworm Worm Counts, Intestine, Male, Average / Adult Hookworm Worm Counts, Intestine, Female, Average / Adult Hookworm Worm Counts, Total, Average: group average; for Adult Hookworm Worm Counts, Intestine, Male, Average: AS03 control 64; for Adult Hookworm Worm Counts, Intestine, Female, Average: AS03 control 71; for Adult Hookworm Worm Counts, Total, Average: AS03 control 137
Method: as §1, §2
Challenge Infection: Ancylostoma caninum larvae were cultured from the eggs collected in the feces of infected dogs. All hookworms in the infective challenge were approximately equal age (17±7 days). The species identity of the infective larva dose were validated using PCR DNA amplification and specific oligonucleotide primers. Overnight-collected feces of A. caninum-infected dogs were cultured, extracted and counted. All dogs were infected by the footpad method with the same dose (500+/−5%, of 3rd stage larvae of A. caninum. Larval challenge occurs on one of three consecutive days (at age 120+/−9 days) in 5 series. To minimize the difference in the infective L3 doses, each series included one dog from each (A-E group). […]
Adult Worm Count. Adult worms retained in the small and large intestines were collected. The small and large bowel will be collected and the small intestine will be suspended (the large bowel will not be suspended) in a container and incubated for at least two hours at 35° C. saline to collect the adult parasites. The adult worms were separated from the intestinal contents, counted, and preserved in formalin for subsequent count and analysis of sex, length and weight. Results and Analysis

| Molecule | reduction in worm burden, dog with highest versus dog with lowest antibody titer (A. caninum [1]; dog, in vivo) [%] | hookworms recovered from the dog with the highest antibody titer (A. caninum [1]; single vaccinated dog) [hookworms] | hookworms recovered from the dog with the lowest antibody titer (A. caninum [1]; single vaccinated dog) [hookworms] | number of adult hookworms recovered (mean+standard deviation) (A. caninum [1]; vaccinated dogs, 5 wk after 500 L3 s.c., control dogs 143+30, not significant) | reduced hookworm burden (A. caninum [2]; one dog with high IgE and IgG1 antibody to TTR) [%] | protection against blood loss (hemoglobin, hematocrit) (A. caninum [2]; versus adjuvant control, hemoglobin P=0.036, hematocrit P=0.009) | Antibody titers, IgG1, GEOMEAN [3] | Antibody titers, IgG2, GEOMEAN [3] | Antibody titers, IgG1 [3] | Antibody titers, IgG2 [3] | Adult Hookworm Worm Counts, Intestine, Male, Average (A. caninum [4]) | Adult Hookworm Worm Counts, Intestine, Female, Average (A. caninum [4]) | Adult Hookworm Worm Counts, Total, Average (A. caninum [4]) | Adult Hookworm Worm Counts, Colon, Female (A. caninum [4]; individual dogs) | Adult Hookworm Worm Counts, Colon, Male (A. caninum [4]; individual dogs) | Adult Hookworm Worm Counts, Intestine, Female (A. caninum [4]; individual dogs) | Adult Hookworm Worm Counts, Intestine, Male (A. caninum [4]; individual dogs) | Adult Hookworm Worm Counts, Intestine, Unk. Sex (A. caninum [4]; individual dogs) | Adult Hookworm Worm Counts, Total (A. caninum [4]; individual dogs) |
| --- | --- | --- | --- | --- | --- | --- | --- | --- | --- | --- | --- | --- | --- | --- | --- | --- | --- | --- | --- |
| B1 | 50 | 98 | 189 | 154+34 hookworms | – | – | – | – | – | – | – | – | – | – | – | – | – | – | – |
| B2 | – | – | – | – | 6 | significant protection against blood loss | – | – | – | – | – | – | – | – | – | – | – | – | – |
| B3 | – | – | – | – | – | – | 121,500 | 364,500 | 121,500 (3×) and 40,500 and 364,500 | 364,500 (3×) and 121,500 and 1,093,500 | 49 | 56 | 107 | 0 (3×) and 5 and 2 | 0 (3×) and 1 and 3 | 56 and 85 and 29 and 67 and 41 | 44 and 81 and 38 and 48 and 36 | 1 | 100 and 167 and 67 and 124 and 79 |
| B4 | – | – | – | – | – | – | 62,850 | 121,500 | 121,500 (2×) and 40,500 (3×) | 364,500 and 121,500 (3×) and 40,500 | 61 | 60 | 132 | 10 and 3 and 2 and 15 and 0 | 11 and 2 and 1 (2×) and 9 | 71 and 51 and 41 and 65 and 73 | 64 (2×) and 49 and 41 and 87 | – | 156 and 105 and 85 and 153 and 161 |
